Measurements from patent US20220307010A1 (published 2022).

B1: hTIGIT (receptor)
chain: MMTGTIETTGNISAEKGGSIILQCHLSSTTAQVTQVNWEQQDQLLAICNADLGWHISPSFKDRVAPGPGLGLTLQSLTVNDTGEYFCIYHTYPDGTYTGRIFLEVLESSVAEHGARFQIP
modifications: biotinylated antigen (site not given)
Question: What does the source list for B1?
Answer: Kd (TIGIT55-08): 113 nM; Kd (TIGIT55-11): 327 nM; Kd (TIGIT55-06): 153 nM; Kd (TIGIT55-05): 97.6 nM; Kd (TIGIT55-13): 112 nM; Kd (TIGIT55-01): 15.9 nM; Kd (TIGIT55-14): 139 nM
